Numbering of substitutions follows the chain as printed. Numbers in names are those of the source.
B1: recombinant 6xHis-tagged full-length mSir2α (protein)
chain: MADEVALALQAAGSPSAAAAMEAASQPADEPLRKRPRRDGPGLGRSPGEPSAAVAPAAAGCEAASAAAPAALWREAAGAAASAEREAPATAVAGDGDNGSGLRREPRAADDFDDDEGEEEDEAAAAAAAAAIGYRDNLLLTDGLLTNGFHSCESDDDDRTSHASSSDWTPRPRIGPYTFVQQHLMIGTDPRTILKDLLPETIPPPELDDMTLWQIVINILSEPPKRKKRKDINTIEDAVKLLQECKKIIVLTGAGVSVSCGIPDFRSRDGIYARLAVDFPDLPDPQAMFDIEYFRKDPRPFFKFAKEIYPGQFQPSLCHKFIALSDKEGKLLRNYTQNIDTLEQVAGIQRILQCHGSFATASCLICKYKVDCEAVRGDIFNQVVPRCPRCPADEPLAIMKPEIVFFGENLPEQFHRAMKYDKDEVDLLIVIGSSLKVRPVALIPSSIPHEVPQILINREPLPHLHFDVELLGDCDVIINELCHRLGGEYAKLCCNPVKLSEITEKPPRPQKELVHLSELPPTPLHISEDSSSPERTVPQDSSVIATLVDQATNNNVNDLEVSESSCVEEKPQEVQTSRNVENINVENPDFKAVGSSTADKNERTSVAETVRKCWPNRLAKEQISKRLEGNQYLFVPPNRYIFHGAEVYSDSEDDVLSSSSCGSNSDSGTCQSPSLEEPLEDESEIEEFYNGLEDDTERPECAGGSGFGADGGDQEVVNEAIATRQELTDVNYPSDKS
B2: recombinant mSir2α mutant R266A (protein)
chain: B1 chain with R266A
B3: recombinant mSir2α mutant P285A (protein)
chain: B1 chain with P285A
B4: recombinant mSir2α mutant G270A (protein)
chain: B1 chain with G270A
B5: recombinant mSir2α mutant F265A (protein)
chain: B1 chain with F265A
B6: recombinant mSir2α mutant S257A (protein)
chain: B1 chain with S257A
B7: recombinant mSir2α mutant I262A (protein)
chain: B1 chain with I262A
B8: recombinant mSir2α mutant G255A (protein)
chain: B1 chain with G255A
B9: recombinant mSir2α mutant G253A (protein)
chain: B1 chain with G253A
B10: recombinant mSir2α mutant H355A (protein)
chain: B1 chain with H355A
B11: recombinant mSir2α mutant T336A (protein)
chain: B1 chain with T336A
B12: endogenous mSir2α protein of mouse NIH3T3 cells (protein)
chain: ADEVALALQAAGSPSAAAAMEAASQPADEPLRKRPRRDGPGLGRSPGEPSAAVAPAAAGCEAASAAAPAALWREAAGAAASAEREAPATAVAGDGDNGSGLRREPRAADDFDDDEGEEEDEAAAAAAAAAIGYRDNLLLTDGLLTNGFHSCESDDDDRTSHASSSDWTPRPRIGPYTFVQQHLMIGTDPRTILKDLLPETIPPPELDDMTLWQIVINILSEPPKRKKRKDINTIEDAVKLLQECKKIIVLTGAGVSVSCGIPDFRSRDGIYARLAVDFPDLPDPQAMFDIEYFRKDPRPFFKFAKEIYPGQFQPSLCHKFIALSDKEGKLLRNYTQNIDTLEQVAGIQRILQCHGSFATASCLICKYKVDCEAVRGDIFNQVVPRCPRCPADEPLAIMKPEIVFFGENLPEQFHRAMKYDKDEVDLLIVIGSSLKVRPVALIPSSIPHEVPQILINREPLPHLHFDVELLGDCDVIINELCHRLGGEYAKLCCNPVKLSEITEKPPRPQKELVHLSELPPTPLHISEDSSSPERTVPQDSSVIATLVDQATNNNVNDLEVSESSCVEEKPQEVQTSRNVENINVENPDFKAVGSSTADKNERTSVAETVRKCWPNRLAKEQISKRLEGNQYLFVPPNRYIFHGAEVYSDSEDDVLSSSSCGSNSDSGTCQSPSLEEPLEDESEIEEFYNGLEDDTERPECAGGSGFGADGGDQEVVNEAIATRQELTDVNYPSDKS

Tests used:
[1] = target: histone H4 (calf thymus), P62803
[2] = target: histone H2B (calf thymus), P62808
[3] = target: unacetylated histone H3 N-terminal tail peptide (residues 1-20)
[4] = target: histone H2A (calf thymus), P0C0S9
[5] = target: histone H3 (calf thymus), intact protein, P68432
[6] = target: histone H4 N-terminal tail peptide (residues 1-20) acetylated at Lys16
[7] = target: histone H3 N-terminal tail peptide (residues 1-20) di-acetylated at lysines 9 and 14

Protein	mono-ADP-ribosylation activity relative to wild type (Phosphorimaging) [2]	also measured
B1		ADP-ribosylation (transfer of 32P from NAD, SDS-PAGE) [1]: but not to H1, H2A and H4; ADP-ribosylation (transfer of 32P from NAD, SDS-PAGE) [2]: transferred radioactive ADP-ribose to H2B and H3; ADP-ribosylation of peptide (32P-NAD, thin layer chromatography) [3]: modified only the diacetylated H3 tail peptide (unacetylated peptide not modified); ADP-ribosylation (transfer of 32P from NAD, SDS-PAGE) (histone H1 (calf thymus)): but not to H1, H2A and H4; ADP-ribosylation (transfer of 32P from NAD, SDS-PAGE) [4]: but not to H1, H2A and H4; ADP-ribosylation (transfer of 32P from NAD, SDS-PAGE) [5]: transferred radioactive ADP-ribose to H2B and H3; ADP-ribosyltransferase and NAD hydrolase activities (thin layer chromatography) [6]: Both ADP-ribosylation and NAD hydrolysis were stimulated by the Lys16Ac peptide; ADP-ribosylation of peptide (32P-NAD, thin layer chromatography) [7]: Both the yeast and mouse Sir2 modified only the diacetylated H3 tail peptide; NAD-dependent deacetylation (HPLC) [7]: gave rise to the same array of products with a similar yield as the yeast enzyme
B2	18% for R266A	
B3	5% for P285A	
B4	completely abolished the activity	
B5	completely abolished the activity	
B6	completely abolished the activity	
B7	completely abolished the activity	
B8	completely abolished the activity	
B9	completely abolished the activity	
B10	completely abolished the activity	
B11	completely abolished the activity	
B12		ADP-ribosyl-transferase activity of the immune complex on Protein A-Sepharose beads [2]: ADP-ribosyl-transferase activity could be detected for the endogenous mSir2α immunoprecipitated from NIH3T3 whole cell extracts

Source: patent US8642284
